In patent US20190076505A1 (TORAY INDUSTRIES, published 2019):

B1: polypeptide consisting of the amino acid sequence represented by SEQ ID NO: 37 (peptide)
peptide: VEYVWRNIILMSLLHLGALYGITL
B2: polypeptide consisting of the amino acid sequence represented by SEQ ID NO: 38 (peptide)
peptide: WGVFYYFVSALGITAGAH
B3: polypeptide consisting of the amino acid sequence represented by SEQ ID NO: 44 (peptide)
peptide: NATWLVNSAAHLFGYR
B4: polypeptide consisting of the amino acid sequence represented by SEQ ID NO: 40 (peptide)
peptide: HRSYKARLPLRLFLI
B5: polypeptide consisting of the amino acid sequence represented by SEQ ID NO: 41 (peptide)
peptide: PLRLFLIIANTMAFQN
B6: polypeptide consisting of the amino acid sequence represented by SEQ ID NO: 45 (peptide)
peptide: ASEYRWHINFTT
B7: polypeptide consisting of the amino acid sequence represented by SEQ ID NO: 43 (peptide)
peptide: AEKLVMFQRRYYKPGLL
B8: polypeptide consisting of the amino acid sequence represented by SEQ ID NO: 39 (peptide)
peptide: TAGAHRLWSHRSYKARLPLR
B9: polypeptide consisting of the amino acid sequence represented by SEQ ID NO: 42 (peptide)
peptide: HVGWLLVRKHPAVKE

Biological target: HLA-DRB1*04 molecules (human)
Assay: cell-based or functional assay

Binder	IFN-γ production (ELISA) by CD4-positive T cells against peptide-pulsed PBMCs expressing HLA-DRB1*04 [pg/mL]
B1	≥ 1000
B2	≥ 1000
B3	≥ 1000
B4	≥ 1000
B5	≥ 1000
B6	≥ 1000
B7	≥ 1000
B8	≥ 1000
B9	≥ 1000
